The target of this experiment is CD8+ splenocytes from LV-huCEA-vaccinated huCEA transgenic mice (T cell receptors of huCEA-specific CTLs). Nature of the experiment: flow cytometry, tetramer and anti-CD8 double staining of pooled splenocytes. (In general: A flow cytometer gives signals particle by particle.)

This note sets out measurements from patent US20140193449A1.

In turn, “PE-conjugated huCEA/H-2Db tetramer specific for EAQNTTYL (SEQ ID NO: 23) immunogenic peptide (iTag, Beckman Coulter) (from UniProt P01899 25-309) (peptide-MHC)” gave a percent of CD8+ splenocytes stained by the tetramer of 2.1%.
